Measurements from patent US20120315284A1 (KOREA RESEARCH INSTITUTE OF BIOSCIENCE AND BIOTECH, published 2012).

T1: MKK7 in cell lysate (immunoprecipitated with MKK7 antibody; the cells' own MKK7) (human, UniProt O14733 2-419, limits assumed)
T1 sequence: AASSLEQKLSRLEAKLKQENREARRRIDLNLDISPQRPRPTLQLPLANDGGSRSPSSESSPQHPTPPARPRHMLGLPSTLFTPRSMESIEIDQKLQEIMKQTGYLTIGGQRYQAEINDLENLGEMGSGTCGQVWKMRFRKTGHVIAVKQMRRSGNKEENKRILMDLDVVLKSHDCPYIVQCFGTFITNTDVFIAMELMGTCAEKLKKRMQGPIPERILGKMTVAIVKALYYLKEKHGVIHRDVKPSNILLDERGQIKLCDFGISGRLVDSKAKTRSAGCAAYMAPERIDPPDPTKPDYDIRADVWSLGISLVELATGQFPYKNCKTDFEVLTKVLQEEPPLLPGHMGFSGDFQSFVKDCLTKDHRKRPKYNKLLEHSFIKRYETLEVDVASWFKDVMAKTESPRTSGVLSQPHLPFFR

T2: MKK7 fragment D1 (pGST vector, HEK293T) (human, UniProt O14733 85-419, limits assumed)
T2 construct: also called MKK7-D1; not shown: GST tag of the pGST expression vector
T2 sequence: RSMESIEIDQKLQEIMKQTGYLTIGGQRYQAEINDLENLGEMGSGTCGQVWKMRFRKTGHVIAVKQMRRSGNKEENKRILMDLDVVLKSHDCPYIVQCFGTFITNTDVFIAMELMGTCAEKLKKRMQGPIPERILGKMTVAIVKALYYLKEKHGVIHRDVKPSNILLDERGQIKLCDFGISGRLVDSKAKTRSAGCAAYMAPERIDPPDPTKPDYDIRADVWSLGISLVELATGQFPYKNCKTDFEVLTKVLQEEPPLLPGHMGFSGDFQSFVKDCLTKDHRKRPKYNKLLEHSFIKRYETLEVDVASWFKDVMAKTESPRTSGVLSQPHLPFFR

T3: MKK7 (full length MKK7 expressed from the pGST vector in HEK293T cells) (human, UniProt O14733 1-419)
T3 construct: also called full length MKK protein; not shown: GST tag of the pGST (pEBG) vector
T3 sequence: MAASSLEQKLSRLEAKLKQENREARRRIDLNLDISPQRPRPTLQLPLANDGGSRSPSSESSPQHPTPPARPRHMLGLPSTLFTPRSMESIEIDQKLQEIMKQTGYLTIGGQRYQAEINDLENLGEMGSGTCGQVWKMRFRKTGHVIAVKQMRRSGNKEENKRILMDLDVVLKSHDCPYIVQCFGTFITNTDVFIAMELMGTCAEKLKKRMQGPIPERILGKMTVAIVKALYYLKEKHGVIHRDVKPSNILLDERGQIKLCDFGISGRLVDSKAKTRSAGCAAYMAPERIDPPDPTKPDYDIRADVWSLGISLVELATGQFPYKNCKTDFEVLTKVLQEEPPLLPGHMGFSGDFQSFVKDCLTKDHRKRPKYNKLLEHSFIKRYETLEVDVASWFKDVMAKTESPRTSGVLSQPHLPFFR

B1: TIP41 (full length TIP41 protein expressed from the pHA vector in HEK293T cells) (other)
chain: MMIHGFQSSHRDFCFGPWKLTASKTHIMKSADVEKLADELHMPSLPEMMFGDNVLRIQHGSGFGIEFNATDALRCVNNYQGMLKVACAEEWQESRTEGEHSKEVIKPYDWTYTTDYKGTLLGESLKLKVVPTTDHIDTEKLKAREQIKFFEEVLLFEDELHDHGVSSLSVKIRVMPSSFFLLLRFFLRIDGVLIRMNDTRLYHEADKTYMLREYTSRESKISSLMHVPPSLFTEPNEISQYLPIKEAVCEKLIFPERIDPNPADSQKSTQVE
notes: Cloned from liver cancer cell RNA into pHA; also called TIPRL; TOR Signaling Pathway Regulator-Like; not shown: HA tag of the pHA vector (pcDNA3.1 with HA tag)

What was measured:
[1] = target: T1, MKK7 in cell lysate (immunoprecipitated …); test: immunoprecipitation (legend of FIG. 11B)
Description: In order to identify interaction between TIP41 and MKK7, each antibody was used to perform immunoprecipitation, and binding between TIP41 and MKK7 was identified with Western Blotting. Immunoprecipitation is done by adding about 2 μg antibody of protein to be precipitated into 1 mg cell lysate and reacted for about 2 hours in about 4° C., and add about 30 μl Protein G sepharose bead into each and react for about 12 hours in about 4° C. Afterwards, about 1 ml PBST[0.1% Tween20 included PBS] buffer was added for washing, and the procedure was repeated for about 4 times. Then 100 μl 1× sample buffer (for Western Blotting) was added into the washed bead, and then it was boiled for about 5 minutes in about 95° C. heating block, and was cooled in ice for about 2 minutes. Afterwards, Western Blotting was performed using MKK7 and TIP41 antibody.

[2] = target: T2, MKK7 fragment D1 (pGST vector, HEK293T); test: GST pull-down from HEK293T lysate, Western blot
[3] = target: B1; test: GST pull-down from HEK293T lysate, Western blot
[4] = target: T3, MKK7 (full length MKK7 expressed from …); test: GST pull-down from HEK293T lysate, Western blot

binding result [4] | Binder | other results
– | TIP41 in cell lysate (immunoprecipitated with TIP41 antibody; the cells' own TIP41) (other, also called TIPP41) MMIHGFQSSHRDFCFGPWKLTASKTHIMKSADVEKLADELHMPSLPEMMFGDNVLRIQHGSGFGIEFNATDALRCVNNYQGMLKVACAEEWQESRTEGEHSKEVIKPYDWTYTTDYKGTLLGESLKLKVVPTTDHIDTEKLKAREQIKFFEEVLLFEDELHDHGVSSLSVKIRVMPSSFFLLLRFFLRIDGVLIRMNDTRLYHEADKTYMLREYTSRESKISSLMHVPPSLFTEPNEISQYLPIKEAVCEKLIFPERIDPNPADSQKSTQVE | binding result [1]: binds
– | B1 | binding result [2]: no binding
– | MKK7 fragment D5 (pGST vector, HEK293T) (other, also called MKK7-D5; not shown: GST tag of the pGST expression vector) AGCAAYMAPERIDPPDPTKPDYDIRADVWSLGISLVELATGQFPYKNCKTDFEVLTKVLQEEPPLLPGHMGFSGDFQSFVKDCLTKDHRKRPKYNKLLEHSFIKRYETLEVDVASWFKDVMAKTESPRTSGVLSQPHLPFFR | binding result [3]: no binding
no binding | TIP41 fragment D4 (pHA vector, HEK293T) (other, also called TIP41-D4; not shown: HA tag of the pHA vector) MLKVACAEEWQESRTEGEHSKEVIKPYDWTYTTDYKGTLLGESLKLKVVPTTDHIDTEKLKAREQIKFFEEVLLFEDELHDHGVSSL | –
no binding | TIP41 fragment D2 (pHA vector, HEK293T) (other, also called TIP41-D2; not shown: HA tag of the pHA vector) MMIHGFQSSHRDFCFGPWKLTASKTHIMKSADVEKLADELHMPSLPEMMFGDNVLRIQHGSGFGIEFNATDALRCVNNYQGMLKVACAEEWQESRTEGEHSKEVIKPYDWTYTTDYKGTLLGESLKLKVVPTTDHIDTEKLKAREQIKFFEEVLLFEDELHDHGVSSLSVKIRVMPSSFFLLLRFFLRIDGVLIRMNDTRLYHEADKTYMLREYTSRESKISSLMHVPPS | –
no binding | TIP41 fragment D5 (pHA vector, HEK293T) (other, also called TIP41-D5; not shown: HA tag of the pHA vector) MMIHGFQSSHRDFCFGPWKLTASKTHIMKSADVEKLADELHMPSLPEMMFGDNVLRIQHGSGFGIEFNATDALRCVNNYQGMLKVACAEEWQESRTEGEH | –
no binding | TIP41 fragment D1 (pHA vector, HEK293T) (other, also called TIP41-D1; not shown: HA tag of the pHA vector) MMIHGFQSSHRDFCFGPWKLTASKTHIMKSADVEKLADELHMPSLPEMMFGDNVLRIQHGSGFGIEFNATDALRCVNNYQGMLKVACAEEWQESRTEGEHSKEVIKPYDWTYTTDYKGTLLGESLKLKVVPTTDHIDTEKLKAREQIKFFEEVLLFEDELHDHGVSSL | –
